According to patent US20060259987A1:
Read-outs that look alike come from different tables or passages of the source. One block for each substance: values may come before it.

Assays:
Assay in all cases: cell-based or functional assay
[1] = molecular target: human neutrophil elastase (human) (UniProt P08246)
factor Xa (human) = factor Xa (human) (UniProt P00742)
[2] = molecular target: human neutrophil cathepsin G (human) (UniProt P08311)
thrombin (human) = thrombin (human) (UniProt P00734)

Chain of human neutrophil elastase (human) (P08246 30-247 limits assumed): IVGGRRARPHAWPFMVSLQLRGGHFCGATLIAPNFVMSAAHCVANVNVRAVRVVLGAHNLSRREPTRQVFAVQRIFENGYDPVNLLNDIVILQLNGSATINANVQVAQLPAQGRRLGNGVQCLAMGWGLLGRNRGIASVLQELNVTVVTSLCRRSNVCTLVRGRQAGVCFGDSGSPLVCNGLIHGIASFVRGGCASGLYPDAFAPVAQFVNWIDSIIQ
Chain of human neutrophil cathepsin G (human) (P08311 21-244 limits assumed): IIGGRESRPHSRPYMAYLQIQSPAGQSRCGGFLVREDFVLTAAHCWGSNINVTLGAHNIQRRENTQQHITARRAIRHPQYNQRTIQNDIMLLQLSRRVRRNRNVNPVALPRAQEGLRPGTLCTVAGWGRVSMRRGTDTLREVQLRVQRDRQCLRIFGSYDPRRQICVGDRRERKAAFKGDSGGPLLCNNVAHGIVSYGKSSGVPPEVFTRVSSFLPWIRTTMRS

halflife, min (HNE/hep) [1]: 2.9 min
rsd IIa, HNE (CA #14, stg 1 conc 200) [1]: 100%
rsd Xa, HNE (CA #14, stg 1 conc 200) [1]: 101%
IC50 fXa/UFH; HCA #4 (factor Xa (human)): 13 nM
rsd. Xa catG; CA #12; stg1 conc 200 (factor Xa (human)): 1%
rsd. Xa catG; CA #17; stg1 conc 3 (factor Xa (human)): 77%
rsd. Xa catG; CA #17; stg1 conc 7 (factor Xa (human)): 12%
rsd. Xa catG; CA #17; stg1 conc 23 (factor Xa (human)): -7%
rsd. Xa hne; CA #14; stg1 conc 200 (factor Xa (human)): 101%
rsd. Xa hne; CA #17; stg1 conc 23 (factor Xa (human)): 98%
rsd. Xa no add; CA #17; stg1 conc 1 (factor Xa (human)): 90%
rsd. Xa no add; CA #17; stg1 conc 3 (factor Xa (human)): 75%
rsd. Xa no add; CA #17; stg1 conc 23 (factor Xa (human)): 1%
IC50 fXa/UFH; HCA #4 (factor Xa (human); record 2): 13 nM
rsd IIa, catG (CA #14, stg 1 conc 200) [2]: 1%
Substance: plasma-derived ATIII (from UniProt P01008 33-464)

IC50 fXa/UFH; HCA #4 (factor Xa (human)): 13 nM
rsd. Xa catG; CA #12; stg1 conc 200 (% of no-ATIII control) (factor Xa (human)): 1
rsd. Xa catG; CA #17; stg1 conc 3 (% of no-ATIII control) (factor Xa (human)): 77
rsd. Xa catG; CA #17; stg1 conc 7 (% of no-ATIII control) (factor Xa (human)): 12
rsd. Xa catG; CA #17; stg1 conc 23 (% of no-ATIII control) (factor Xa (human)): -7
rsd. Xa hne; CA #14; stg1 conc 200 (% of no-ATIII control) (factor Xa (human)): 101
rsd. Xa hne; CA #17; stg1 conc 23 (% of no-ATIII control) (factor Xa (human)): 98
rsd. Xa no add; CA #17; stg1 conc 1 (% of no-ATIII control) (factor Xa (human)): 90
rsd. Xa no add; CA #17; stg1 conc 3 (% of no-ATIII control) (factor Xa (human)): 75
rsd. Xa no add; CA #17; stg1 conc 23 (% of no-ATIII control) (factor Xa (human)): 1
Substance: human plasma-derived ATIII (from UniProt P01008 33-464)

IC50 fXa/UFH; HCA #2 (factor Xa (human)): 17 nM
rsd. Xa catG; CA #8; stg1 conc 200 (factor Xa (human)): 1%
rsd. Xa catG; CA #8; stg1 conc 200 (% of no-ATIII control) (factor Xa (human)): 1
rsd. Xa catG; CA #9; stg1 conc 200 (factor Xa (human)): 1%
rsd. Xa catG; CA #9; stg1 conc 200 (% of no-ATIII control) (factor Xa (human)): 1
rsd. Xa hne; CA #8; stg1 conc 200 (factor Xa (human)): 90%
rsd. Xa hne; CA #8; stg1 conc 200 (% of no-ATIII control) (factor Xa (human)): 90
rsd. Xa hne; CA #9; stg1 conc 200 (factor Xa (human)): 106%
rsd. Xa hne; CA #9; stg1 conc 200 (% of no-ATIII control) (factor Xa (human)): 106
rsd. Xa no add; CA #8; stg1 conc 200 (factor Xa (human)): 1%
rsd. Xa no add; CA #8; stg1 conc 200 (% of no-ATIII control) (factor Xa (human)): 1
rsd. Xa no add; CA #9; stg1 conc 200 (% of no-ATIII control) (factor Xa (human)): 2
IC50 fXa/UFH; HCA #2 (factor Xa (human); record 2): 17 nM
rsd. IIa catG; CA #8; stg1 conc 200 (thrombin (human)): 0%
rsd. IIa catG; CA #8; stg1 conc 200 (% of no-ATIII control) (thrombin (human)): 0
rsd. IIa catG; CA #9; stg1 conc 200 (thrombin (human)): 2%
rsd. IIa catG; CA #9; stg1 conc 200 (% of no-ATIII control) (thrombin (human)): 2
rsd. IIa hne; CA #8; stg1 conc 200 (thrombin (human)): 90%
rsd. IIa hne; CA #8; stg1 conc 200 (% of no-ATIII control) (thrombin (human)): 90
rsd. IIa hne; CA #9; stg1 conc 200 (thrombin (human)): 100%
rsd. IIa hne; CA #9; stg1 conc 200 (% of no-ATIII control) (thrombin (human)): 100
rsd. IIa no add; CA #8; stg1 conc 200 (thrombin (human)): 1%
rsd. IIa no add; CA #8; stg1 conc 200 (% of no-ATIII control) (thrombin (human)): 1
rsd. IIa no add; CA #9; stg1 conc 200 (thrombin (human)): 2%
rsd. IIa no add; CA #9; stg1 conc 200 (% of no-ATIII control) (thrombin (human)): 2
Substance: ATIII N135A (from UniProt P01008 33-464)

IC50 fXa/UFH; HCA #4 (factor Xa (human)): 12 nM
rsd. Xa catG; CA #6; stg1 conc 200 (% of no-ATIII control) (factor Xa (human)): 0
rsd. Xa catG; CA #13; stg1 conc 200 (% of no-ATIII control) (factor Xa (human)): 1
rsd. Xa hne; CA #6; stg1 conc 200 (% of no-ATIII control) (factor Xa (human)): 81
rsd. Xa hne; CA #13; stg1 conc 200 (% of no-ATIII control) (factor Xa (human)): 87
rsd. Xa no add; CA #6; stg1 conc 200 (% of no-ATIII control) (factor Xa (human)): 0
rsd. Xa no add; CA #13; stg1 conc 200 (% of no-ATIII control) (factor Xa (human)): 2
IC50 IIa/UFH; HCA #4 (thrombin (human)): 13 nM
rsd. IIa catG; CA #6; stg1 conc 200 (% of no-ATIII control) (thrombin (human)): 0
rsd. IIa catG; CA #13; stg1 conc 200 (% of no-ATIII control) (thrombin (human)): 1
rsd. IIa hne; CA #6; stg1 conc 200 (% of no-ATIII control) (thrombin (human)): 81
rsd. IIa hne; CA #13; stg1 conc 200 (% of no-ATIII control) (thrombin (human)): 89
rsd. IIa no add; CA #6; stg1 conc 200 (% of no-ATIII control) (thrombin (human)): 0
rsd. IIa no add; CA #13; stg1 conc 200 (% of no-ATIII control) (thrombin (human)): 4
Substance: ATIII S137A (from UniProt P01008 33-464)
